Reference: patent US20260217843A1 (APOGEE THERAPEUTICS, published 2026)
Numbering of substitutions follows the chain as printed.

How the values were obtained:
[1] = target: T1, hOX40L added as soluble protein in cell assays (human, UniProt P23510 51-183, limits assumed); test: cell-based or functional assay
T1 sequence: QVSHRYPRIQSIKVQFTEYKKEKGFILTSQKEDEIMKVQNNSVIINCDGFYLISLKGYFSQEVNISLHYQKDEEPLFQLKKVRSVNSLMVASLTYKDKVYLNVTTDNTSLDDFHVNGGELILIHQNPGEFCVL

[2] = target: T1, hOX40L added as soluble protein in cell …; test: cell-based or functional assay; remark: listed apart in the source
[3] = target: T2, Recombinant Human OX40L Protein, His Tag (Acro Cat. IL3-H52H4) (human, UniProt P23510 51-183); test: SPR (Biacore 8K), antibody captured, human OX40L injected, 1:1 fit
T2 construct: Bought His-tagged protein; also called hOX40L
T2 sequence: T1 sequence
Protocol: (§1) Samples were injected in a multi-cycle manner over freshly captured mAb, by regenerating the capture surfaces with injection of glycine pH 1.5 for 30 sec at a flow rate of 30 μL/min. The data was processed and analyzed with Biacore Insight Evaluation Software Version 2.0.15.12933 (GE Healthcare) as follows. […] The responses from the two buffer blank injections were then subtracted from the reference subtracted data (2-1) to yield double-referenced data, which were fit to an 1:1 binding model to determine the apparent association (ka) and dissociation rate constants (kd). Their ratio provided the apparent equilibrium dissociation constant or affinity constant (KD=kd/ka).

[4] = target: T3, Recombinant Cynomolgus OX40L Protein, His Tag (SINO BIOLOGICAL, Cat. 11057-C07H) (cynomolgus, UniProt G7NVH7 51-183); test: SPR (Biacore 8K), antibody captured, cynomolgus OX40L injected, 1:1 fit
T3 construct: Bought protein
T3 sequence: T1 sequence with R5Q, K23E
Protocol: as §1

[5] = target: T4, hOX40L on hOX40L-expressing CHO cells (human, UniProt P23510 1-183); test: flow cytometry on hOX40L-expressing CHO cells, gMFI, nonlinear regression
T4 construct: also called cell surface OX40L
T4 sequence: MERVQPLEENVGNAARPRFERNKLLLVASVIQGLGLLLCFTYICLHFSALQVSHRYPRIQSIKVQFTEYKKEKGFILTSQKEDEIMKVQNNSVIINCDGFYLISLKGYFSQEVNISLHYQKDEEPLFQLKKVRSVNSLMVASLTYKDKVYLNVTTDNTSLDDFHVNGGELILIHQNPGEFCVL
Protocol: Nonlinear regression was performed on geometric mean fluorescence intensity (gMFI) values to determine EC50 values (FIG. 1, TABLE 8).

[6] = target: human CD64 (human, UniProt P12314 16-288); test: SPR (Biacore 8K+), antibody captured by anti-human IgG Fc, receptor injected
Protocol: (§2) Briefly, a CM5 Series S sensor chip functionalized with anti-human IgG Fc antibody was used to capture antibodies at 5 μg/mL. […] The chip was regenerated with 10 mM glycine pH 1.5 and 10 mM NaOH between runs.

[7] = target: T5, human CD32a 167H (human, UniProt P12318 36-218); test: as above
T5 construct: numbering not explained
T5 sequence (looked up): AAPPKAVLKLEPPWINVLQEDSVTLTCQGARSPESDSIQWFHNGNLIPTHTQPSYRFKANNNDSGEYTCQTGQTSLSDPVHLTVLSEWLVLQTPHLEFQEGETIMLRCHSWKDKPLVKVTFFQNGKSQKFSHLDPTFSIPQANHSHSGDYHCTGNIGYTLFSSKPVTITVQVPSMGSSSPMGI
Protocol: as §2

[8] = target: T6, human CD32a 167R (human, UniProt P12318 36-218); test: as above
T6 construct: numbering not explained
T6 sequence (looked up): T5 sequence (looked up) with H132R
Protocol: as §2

[9] = target: T7, human CD32b (human, UniProt P31994 46-217); test: as above
T7 sequence (looked up): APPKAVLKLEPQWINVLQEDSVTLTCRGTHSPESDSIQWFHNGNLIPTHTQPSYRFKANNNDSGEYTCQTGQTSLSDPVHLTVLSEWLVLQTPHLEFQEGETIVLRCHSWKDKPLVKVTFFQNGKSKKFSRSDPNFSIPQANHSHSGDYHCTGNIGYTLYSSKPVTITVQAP
Protocol: as §2

[10] = target: T8, human CD16a 176F (human, UniProt P08637 17-208); test: as above
T8 construct: numbering not explained
Protocol: as §2

[11] = target: T9, human CD16a 176V (human, UniProt P08637 17-208); test: as above
T9 construct: Allelic variant named only as '176V'; numbering not explained
Protocol: as §2

[12] = target: human CD16b (human, UniProt O75015 17-200, limits assumed); test: as above
Protocol: as §2

[13] = target: human FcRn (human, UniProt P55899 24-297; P61769 21-119); test: SPR (Biacore 8K+), antibody captured by anti-human kappa, human FcRn injected, pH 5.8; pH 5.8
Protocol: (§3) Briefly, a CM5 Series S sensor chip functionalized with anti-human kappa antibody was used to capture antibodies at 5 μg/mL. […] The chip was regenerated with 10 mM glycine pH 1.5 and 10 mM NaOH between runs.

[14] = target: T10, C1q; test: SPR (Biacore 8K+), antibody captured by anti-human IgG Fc, C1q injected at 25 nM, mean response
T10 construct: also called Clq
Protocol: as §2

[15] = target: cynomolgus FcRn (cynomolgus, UniProt Q8SPV9 24-297; Q8SPW0 21-119); test: SPR (Biacore 8K+), antibody captured by anti-human kappa, cynomolgus FcRn injected, pH 5.8; pH 5.8
Protocol: as §3

[16] = target: T11, biotinylated hOX40L (human, UniProt P23510 51-183, limits assumed, biotinylated (sites not given)); test: blocking ELISA: biotinylated hOX40L preincubated with titrated antibody, added to coated hOX40-Fc, Extravidin-HRP
T11 construct: construct not described
T11 sequence: T1 sequence

cynomolgus FcRn, sequence (Q8SPV9 24-297 limits assumed, chain 1 of 2): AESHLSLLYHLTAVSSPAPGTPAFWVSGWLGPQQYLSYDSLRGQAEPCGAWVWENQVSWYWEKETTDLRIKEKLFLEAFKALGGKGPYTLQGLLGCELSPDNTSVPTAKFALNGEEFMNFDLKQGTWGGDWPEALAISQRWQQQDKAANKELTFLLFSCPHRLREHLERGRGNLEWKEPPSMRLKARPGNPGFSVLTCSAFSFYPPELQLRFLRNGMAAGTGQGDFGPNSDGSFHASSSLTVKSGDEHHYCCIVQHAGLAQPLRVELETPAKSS
cynomolgus FcRn, sequence (Q8SPW0 21-119 limits assumed, chain 2 of 2): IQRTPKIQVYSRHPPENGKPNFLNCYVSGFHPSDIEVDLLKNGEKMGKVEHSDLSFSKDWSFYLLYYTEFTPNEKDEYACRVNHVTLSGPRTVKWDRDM
human FcRn, sequence (P55899 24-297 limits assumed, form in doubt, chain 1 of 2): as the sequence (Q8SPV9 24-297 limits assumed, chain 1 of 2) above, with D39N, Q44E, S99G, G189S, N190S, M217L, T269S counted along it
human FcRn, sequence (P61769 21-119 limits assumed, form in doubt, chain 2 of 2): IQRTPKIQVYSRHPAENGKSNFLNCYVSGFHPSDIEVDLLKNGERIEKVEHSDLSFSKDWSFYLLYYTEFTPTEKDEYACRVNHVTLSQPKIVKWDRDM
T9 sequence (P08637 17-208 F176V limits assumed): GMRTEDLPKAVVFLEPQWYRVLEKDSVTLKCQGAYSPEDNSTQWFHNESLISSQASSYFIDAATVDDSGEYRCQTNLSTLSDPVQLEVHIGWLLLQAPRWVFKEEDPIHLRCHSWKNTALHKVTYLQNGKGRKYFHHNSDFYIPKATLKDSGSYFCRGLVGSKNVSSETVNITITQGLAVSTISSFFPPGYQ
human CD16b, sequence (O75015 17-200 limits assumed): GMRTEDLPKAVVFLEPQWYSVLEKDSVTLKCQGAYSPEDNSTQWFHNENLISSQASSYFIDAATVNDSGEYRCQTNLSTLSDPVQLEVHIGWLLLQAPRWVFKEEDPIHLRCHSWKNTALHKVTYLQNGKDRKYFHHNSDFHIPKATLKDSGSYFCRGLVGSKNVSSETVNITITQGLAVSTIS
T8 sequence (P08637 17-208 limits assumed): as the sequence (P08637 17-208 F176V limits assumed) above, with V160F counted along it
T10 sequence (P02745 23-245, chain 1 of 3): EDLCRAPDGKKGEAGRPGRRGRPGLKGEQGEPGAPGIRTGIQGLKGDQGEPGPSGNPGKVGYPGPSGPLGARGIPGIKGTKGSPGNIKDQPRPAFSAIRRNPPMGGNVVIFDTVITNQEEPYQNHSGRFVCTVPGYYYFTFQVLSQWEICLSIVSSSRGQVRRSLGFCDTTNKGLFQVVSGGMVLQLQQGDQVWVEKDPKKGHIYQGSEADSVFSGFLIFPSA
T10 sequence (P02746 28-253, chain 2 of 3, further chain): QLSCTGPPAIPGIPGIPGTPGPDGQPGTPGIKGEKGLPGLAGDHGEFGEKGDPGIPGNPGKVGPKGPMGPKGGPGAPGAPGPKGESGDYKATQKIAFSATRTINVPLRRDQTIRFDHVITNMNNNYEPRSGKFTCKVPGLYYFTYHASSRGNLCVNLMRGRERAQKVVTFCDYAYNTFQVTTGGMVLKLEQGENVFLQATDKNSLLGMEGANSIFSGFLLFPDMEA
T10 sequence (P02747 29-245, chain 3 of 3, further chain): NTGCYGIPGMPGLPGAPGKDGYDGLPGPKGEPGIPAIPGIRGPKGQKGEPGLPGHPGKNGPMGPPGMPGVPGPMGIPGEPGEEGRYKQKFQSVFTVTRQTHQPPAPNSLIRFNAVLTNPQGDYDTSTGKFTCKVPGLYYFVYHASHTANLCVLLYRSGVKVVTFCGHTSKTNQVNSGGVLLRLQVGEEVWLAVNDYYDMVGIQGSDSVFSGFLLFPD
human CD64, sequence (P12314 16-288 limits assumed): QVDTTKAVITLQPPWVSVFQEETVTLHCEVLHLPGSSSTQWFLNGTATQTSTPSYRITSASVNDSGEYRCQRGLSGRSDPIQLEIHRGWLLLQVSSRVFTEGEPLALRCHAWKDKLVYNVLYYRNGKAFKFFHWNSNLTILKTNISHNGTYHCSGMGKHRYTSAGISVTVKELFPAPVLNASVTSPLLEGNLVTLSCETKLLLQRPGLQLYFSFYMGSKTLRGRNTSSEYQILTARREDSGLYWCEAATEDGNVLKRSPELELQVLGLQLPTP

B1: anti-hOX40L antibody clone 114 (antibody, human IgG1, kappa, L234A L235A)
heavy: EVQVVESGGGLVQPGGSLRLSCAASGFTFSNYAMTWVRQSPGKGLEWVSLISGSGGLTKYADSVKGRFTISRDNSKKTLFLQMNSLRAEDTAAYYCVKDEGLTTGEYWGQGTQVTVSSASTKGPSVFPLAPSSKSTSGGTAALGCLVKDYFPEPVTVSWNSGALTSGVHTFPAVLQSSGLYSLSSVVTVPSSSLGTQTYICNVNHKPSNTKVDKKVEPKSCDKTHTCPPCPAPEAAGGPSVFLFPPKPKDTLYITREPEVTCVVVDVSHEDPEVKFNWYVDGVEVHNAKTKPREEQYNSTYRVVSVLTVLHQDWLNGKEYKCKVSNKALPAPIEKTISKAKGQPREPQVYTLPPSRDELTKNQVSLTCLVKGFYPSDIAVEWESNGQPENNYKTTPPVLDSDGSFFLYSKLTVDKSRWQQGNVFSCSVMHEALHNHYTQKSLSLSPG
light: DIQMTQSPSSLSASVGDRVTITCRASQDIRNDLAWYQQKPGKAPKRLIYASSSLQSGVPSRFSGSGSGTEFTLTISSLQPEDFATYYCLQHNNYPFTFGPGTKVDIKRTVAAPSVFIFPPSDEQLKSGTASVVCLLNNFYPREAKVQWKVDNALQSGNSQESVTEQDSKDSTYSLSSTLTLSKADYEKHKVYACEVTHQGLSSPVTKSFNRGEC
[1]
  IC50, luminescence (RLU), hOX40 reporter cells with 50 ng/mL hOX40L: 0.732 nM
[2]
  Donor 1 IC50, IL-2 release by pre-activated human CD4+ T cells with 20 ng/ml human OX40L: 1.25 nM
  Donor 2 IC50, IL-2 release by pre-activated human CD4+ T cells with 20 ng/ml human OX40L: 1.19 nM
  Donor 3 IC50, IL-2 release by pre-activated human CD4+ T cells with 20 ng/ml human OX40L: 1.18 nM
[3]
  Kd: 0.106 nM
  koff: 0.000114 s⁻¹
  kon: 1.07e+06 M⁻¹ s⁻¹
[4]
  Kd: 0.0336 nM
  koff: 7.73e-05 s⁻¹
  kon: 2.3e+06 M⁻¹ s⁻¹
[5]
  EC50: 4.04 nM
[6]
  binding result: no binding (tested: 12.5 nM)
[7]
  binding result: no binding (tested: 8 µM)
[8]
  binding result: no binding (tested: 8 µM)
[9]
  binding result: no binding (tested: 18 µM)
[10]
  binding result: no binding (tested: 6 µM)
[11]
  binding result: no binding (tested: 6 µM)
[12]
  binding result: no binding (tested: 10 µM)
[13]
  Kd: 141 nM
  koff: 0.0471 s⁻¹
  kon: 333000 M⁻¹ s⁻¹
[14]
  RU at 25 nM C1q: -4.8 RU
[15]
  Kd: 117 nM
  koff: 0.0445 s⁻¹
  kon: 381000 M⁻¹ s⁻¹
[16]
  IC50: 1.12 nM
